Reference: patent publication US20180185504A1 (Regeneron, published 2018)
Like-named read-outs stand apart in the source and are kept apart here.

How the values were obtained:
[1] = molecular target: T1, human prolactin receptor (PRLR) on cells (human, UniProt P16471 25-622); experiment: cell-based or functional assay
T1 sequence: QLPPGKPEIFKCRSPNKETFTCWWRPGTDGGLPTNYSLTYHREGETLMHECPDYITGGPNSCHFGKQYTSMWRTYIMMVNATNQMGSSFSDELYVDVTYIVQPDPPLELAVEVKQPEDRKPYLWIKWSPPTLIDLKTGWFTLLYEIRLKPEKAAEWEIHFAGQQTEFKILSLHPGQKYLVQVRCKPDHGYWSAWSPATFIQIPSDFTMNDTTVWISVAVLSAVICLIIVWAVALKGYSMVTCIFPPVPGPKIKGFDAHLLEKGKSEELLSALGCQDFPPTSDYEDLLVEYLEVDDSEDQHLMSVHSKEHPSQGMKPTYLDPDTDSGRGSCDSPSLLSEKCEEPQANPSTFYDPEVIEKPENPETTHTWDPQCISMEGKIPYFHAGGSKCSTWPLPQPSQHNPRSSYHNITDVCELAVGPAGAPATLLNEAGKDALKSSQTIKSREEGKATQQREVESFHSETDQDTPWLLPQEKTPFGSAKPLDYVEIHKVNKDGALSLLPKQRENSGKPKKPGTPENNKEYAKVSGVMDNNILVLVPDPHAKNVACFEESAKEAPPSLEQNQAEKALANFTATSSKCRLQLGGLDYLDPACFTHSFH

[2] = molecular target: T2, mouse PRLR with an HA tag on HEK293 cells (mouse, UniProt Q08501 20-608); experiment: FACS on HEK293/mPRLR cells
T2 construct: whole, on cells; also called HEK293/mPRLR; rodent PRLR; not shown: HA tag
T2 sequence (looked up): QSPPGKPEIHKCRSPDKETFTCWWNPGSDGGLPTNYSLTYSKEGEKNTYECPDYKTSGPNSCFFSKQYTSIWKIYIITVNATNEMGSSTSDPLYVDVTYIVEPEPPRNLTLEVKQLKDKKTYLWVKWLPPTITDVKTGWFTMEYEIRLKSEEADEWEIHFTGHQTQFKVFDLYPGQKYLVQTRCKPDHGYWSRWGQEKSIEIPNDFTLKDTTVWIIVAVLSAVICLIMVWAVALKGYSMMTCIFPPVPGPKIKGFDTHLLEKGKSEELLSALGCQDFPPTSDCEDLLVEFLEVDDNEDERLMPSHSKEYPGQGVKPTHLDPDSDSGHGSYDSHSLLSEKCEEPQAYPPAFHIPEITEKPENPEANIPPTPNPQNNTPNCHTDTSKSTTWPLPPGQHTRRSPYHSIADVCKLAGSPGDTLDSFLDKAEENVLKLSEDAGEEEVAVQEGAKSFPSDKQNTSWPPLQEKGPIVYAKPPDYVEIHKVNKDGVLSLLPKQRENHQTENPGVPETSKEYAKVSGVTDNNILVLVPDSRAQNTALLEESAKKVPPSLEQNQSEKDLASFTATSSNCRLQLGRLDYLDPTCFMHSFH

[3] = molecular target: T3, human prolactin receptor (PRLR) (human, UniProt P16471 25-622); experiment: cell-based or functional assay
T3 sequence: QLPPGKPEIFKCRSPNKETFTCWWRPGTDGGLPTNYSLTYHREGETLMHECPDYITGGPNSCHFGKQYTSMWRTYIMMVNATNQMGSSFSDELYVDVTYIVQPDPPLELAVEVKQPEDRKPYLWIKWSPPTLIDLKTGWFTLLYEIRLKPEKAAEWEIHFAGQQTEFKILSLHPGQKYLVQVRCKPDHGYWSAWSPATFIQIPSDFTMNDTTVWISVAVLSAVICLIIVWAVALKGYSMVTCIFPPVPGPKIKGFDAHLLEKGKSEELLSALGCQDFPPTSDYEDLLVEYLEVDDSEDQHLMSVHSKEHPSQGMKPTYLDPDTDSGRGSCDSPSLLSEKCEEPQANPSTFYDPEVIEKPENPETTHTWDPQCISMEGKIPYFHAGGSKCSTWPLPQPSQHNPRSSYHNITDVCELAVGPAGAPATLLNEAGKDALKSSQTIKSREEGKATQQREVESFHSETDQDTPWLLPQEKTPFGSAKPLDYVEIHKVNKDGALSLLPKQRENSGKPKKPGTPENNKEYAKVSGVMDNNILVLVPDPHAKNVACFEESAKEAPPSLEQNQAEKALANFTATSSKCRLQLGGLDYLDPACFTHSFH

[4] = molecular target: T3, human prolactin receptor (PRLR); experiment: cell-based or functional assay; remark: listed apart in the source
[5] = molecular target: T3, human prolactin receptor (PRLR); experiment: cell-based or functional assay; remark: listed apart in the source
[6] = molecular target: T3, human prolactin receptor (PRLR); experiment: cell-based or functional assay; remark: listed apart in the source
[7] = molecular target: T3, human prolactin receptor (PRLR); experiment: cell-based or functional assay; remark: listed apart in the source
[8] = molecular target: T3, human prolactin receptor (PRLR); experiment: cell-based or functional assay; remark: listed apart in the source
[9] = molecular target: T4, dimeric form of human PRLR (Example 12 ELISA) (human); experiment: blocking ELISA: 10 nM dimeric human PRLR premixed with ADC (520 pM to 30 nM), plate-coated human PRL
T4 construct: PRLR'
T4 sequence (P16471 whole entry, looked up): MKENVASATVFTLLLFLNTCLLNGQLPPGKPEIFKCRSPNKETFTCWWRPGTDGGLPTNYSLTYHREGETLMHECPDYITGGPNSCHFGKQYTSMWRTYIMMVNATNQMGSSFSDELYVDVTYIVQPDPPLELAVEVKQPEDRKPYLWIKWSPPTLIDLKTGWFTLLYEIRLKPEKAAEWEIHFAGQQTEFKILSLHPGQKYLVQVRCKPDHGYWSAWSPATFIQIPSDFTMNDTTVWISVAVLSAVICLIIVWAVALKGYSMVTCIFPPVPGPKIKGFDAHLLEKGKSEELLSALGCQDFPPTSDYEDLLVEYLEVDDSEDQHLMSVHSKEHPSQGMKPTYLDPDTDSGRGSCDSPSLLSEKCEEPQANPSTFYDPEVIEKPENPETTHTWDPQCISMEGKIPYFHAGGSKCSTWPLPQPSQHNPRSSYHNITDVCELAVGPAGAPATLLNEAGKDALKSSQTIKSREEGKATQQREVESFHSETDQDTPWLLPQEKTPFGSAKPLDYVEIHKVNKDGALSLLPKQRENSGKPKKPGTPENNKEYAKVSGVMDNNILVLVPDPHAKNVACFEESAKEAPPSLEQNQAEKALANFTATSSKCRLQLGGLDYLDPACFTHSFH
Method: (§1) Dimeric forms of human or cynomolgus monkey (Macaca fascicularis) PRLR and monomeric human PRL were used in this assay. […] After 1-hour incubation, captured PRLR was detected with HRP-conjugated goat anti-Fcγ antibody and visualized with TMB colorimetric substrate by measuring absorbance at 450 nm. […] Mixtures were then added to plates coated with in 1 μg/mL PRL and captured PRLR was detected as described above. Data were analyzed using a four-parameter logistic equation over an 11-point response curve in GraphPad Prism software and IC₅₀ values were calculated.

[10] = molecular target: T5, dimeric form of cynomolgus monkey (Macaca fascicularis) PRLR (Example 12 ELISA) (cynomolgus monkey (Macaca fascicularis)); experiment: blocking ELISA: 10 nM dimeric monkey PRLR premixed with ADC (520 pM to 30 nM), plate-coated human PRL
T5 construct: also called monkey PRLR
Method: as §1

B1: H1H6762P (antibody, human IgG1, V domains shown)
VH: QVQLVESGGGVVQPGRSLRLSCAASGFTFSHYGMVWVRQPPGKGLEWVALISFDGTTKYYADSVKGRFTISRDNSKNTLYLQMNSLRAEDTAVYFCVGAIAAAAFDLWGRGTLVTVSS
VL: EIVMTQSPATLSVSPGERATLSCRASQSVSSDLAWYQQKPGQAPRLLIYSASARATGIPARFTGSGSGTDFTLTISSLQSEDFAVYYCQQYNNWPMYTFGQGTKLEIK
IC50, block of STAT5 reporter activation by 5 nM PRL in HEK293/hPRLR/STAT5-Luc cells [1]: 0.022 nM | binding result [2]: no binding

B2: H1H6958N2-DM1 (antibody, human IgG1, V domains shown)
VH: QVQLVESGGGVVQPGRSLRLSCGASGFTFRNYGMQWVRQGPGKGLEWVTLISFDGNDKYYADSVKGRFTISRDNSKNTLFLQMNSLRTEDTAVYYCARGGDFDYWGQGTLVTVSS
VL: DIQMTQSPSSLSASVGDRVTITCRASQDIRKDLGWYQQKPGKAPKRLIYAASSLHSGVPSRFSGSGSGTEFTLTISSLQPEDFATYYCLQHNSYPMYTFGQGTKLEIK
modifications: DM1 conjugated through SMCC linker; attachment residues not stated
% Kill, 293/PRLR cells [3]: 95% | % Kill, PC3/PRLR cells [3]: 83% | IC50, cell viability, 293/PRLR cells [3]: 0.1 nM | IC50, cell viability, PC3/PRLR cells [3]: 0.43 nM | % Kill, MCF7/PRLR cells [4]: 77% | % Kill, MCF7 cells [4]: 77% | % Kill, T47D cells [4]: 71% | IC50, cell viability, MCF7/PRLR cells [4]: 0.19 nM | IC50, cell viability, MCF7 cells [4]: 100 nM | IC50, cell viability, T47D cells [4]: 1.34 nM | IC50, cell viability, T47D cells, + 15 nM PRL [5]: 3 nM | IC50, cell viability, T47D cells, without PRL [5]: 1 nM | % Kill, MCF7/ATCC cells [6]: 72% | % Kill, MCF7/PRLR cells [6]: 83% | % Kill, PC3/hPRLR cells [6]: 79% | IC50, cell viability, MCF7/ATCC cells [6]: 90 nM | IC50, cell viability, MCF7/PRLR cells [6]: 0.2 nM | IC50, cell viability, PC3/hPRLR cells [6]: 0.5 nM | % Kill, T47D cells [7]: 100% | IC50, cell viability, T47D cells [7]: 2 nM | % Kill, MCF7/ATCC cells [8]: 70% | % Kill, MCF7/PRLR cells [8]: 80% | IC50, cell viability, MCF7/ATCC cells [8]: 70 nM | IC50, cell viability, MCF7/PRLR cells [8]: 0.2 nM

B3: H1H6958N2-DM1 (antibody, human IgG1, V domains shown)
VH: QVQLVESGGGVVQPGRSLRLSCGASGFTFRNYGMQWVRQGPGKGLEWVTLISFDGNDKYYADSVKGRFTISRDNSKNTLFLQMNSLRTEDTAVYYCARGGDFDYWGQGTLVTVSS
VL: DIQMTQSPSSLSASVGDRVTITCRASQDIRKDLGWYQQKPGKAPKRLIYAASSLHSGVPSRFSGSGSGTEFTLTISSLQPEDFATYYCLQHNSYPMYTFGQGTKLEIK
modifications: maytansinoid DM1 conjugated to the antibody through an SMCC linker; conjugation sites not stated
notes: also called H1H6958N2-SMCC-DM1; PRLR ADC
IC50, block of PRL-induced STAT5-luciferase activity (2 nM PRL) [1]: 0.4 nM | IC50 [9]: 4.4 nM | IC50 [10]: 4.2 nM
